In article PMC5648601:

Target: recombinant His-MYC-bHLH-LZ protein
Test: BLI

Kd: 225 nM
B1: recombinant GST-MKK3 protein (enzyme)
chain: MESPASSQPASMPQSKGKSKRKKDLRISCMSKPPAPNPTPPRNLDSRTFITIGDRNFEVEADDLVTISELGRGAYGVVEKVRHAQSGTIMAVKRIRATVNSQEQKRLLMDLDINMRTVDCFYTVTFYGALFREGDVWICMELMDTSLDKFYRKVLDKNMTIPEDILGEIAVSIVRALEHLHSKLSVIHRDVKPSNVLINKEGHVKMCDFGISGYLVDSVAKTMDAGCKPYMAPERINPELNQKGYNVKSDVWSLGITMIEMAILRFPYESWGTPFQQLKQVVEEPSPQLPADRFSPEFVDFTAQCLRKNPAERMSYLELMEHPFFTLHKTKKTDIAAFVKEILGEDS
